# Assays:
# [1] = molecular target: T1, human GUCY2C (Homo sapiens, UniProt P25092); assay: Ser40 phosphorylation of Th in HEK cells co-transfected with Th and GUCY2C (western blotting, ratio P-Ser40/Total Th); type: cell-based; details: guanylin 10 μM, 1 hour; for P-Ser40 levels (Fold Change = ratio P-Ser40/Total Th): HEK cells co-transfected with Th and GUCY2C, uroguanylin 1 μM, p<0.01
# T1 construct: expressed in transfected cells; host or cells: HEK cells
# Procedure: FIG. 4. GUCY2C activation increases Ser40 phosphorylation. Immunocytochemistry images (A) and western blotting analysis (B) of HEK cultures transfected with Th or Th+GUCY2C. (C) Co-transfected HEK cells were treated with guanylin (G) or uroguanylin (UroG) and changes in Ser40 phosphorylation were studied. The graph represents the statistical analysis (n=3 for Control, n=6 for Guanylin, n=9 for Uroguanylin; Mean±SEM). Unpaired Student's t-test (p-value: **<0.01).
# (§1) FIG. 5. The increase in Ser40 phosphorylation is proportional to the produced amount of cGMP upon GUCY2C stimulation. (A) HEK cultures were treated with guanylin, in the presence or absence of IBMX. […] Unpaired Student's t-test (p-values: ****<0.0001, **<0.01, *<0.05). (B) HEK cells were co-transfected with Th and either the wt GUCY2C or a gain-of-function mutant (R792S). Ser40 phosphorylation was studied following guanylin treatment (G). […] Unpaired Student's t-test (p-values: ***<0.001, **<0.01).
# (§2) HEK cells were maintained in 100-mm Petri dishes and grown in DMEM medium supplemented with L-glutamine, penicillin-streptomycin (Pen&Strep) and 10% heat-inactivated fetal bovine serum (HIFBS). Growing conditions were 37° C. and 5% CO2. For every-other-day passages, HEK cultures were split at a 1:3 dilution. From Friday to Monday, the split proportion was doubled for all cell lines. For passaging, cultures were rinsed with PBS and incubated with 1 mL of trypsin during 5 minutes. Cells were resuspended in growth medium and finally split to the proper dilution. The experiments were performed in 12-well plates. For immunocytochemistry analysis, sterile 18-mm coverslips were added prior to the plating. 500 μL of cell resuspension was seeded in each well. If experiments were to be performed 48 hours after the plate preparation, 1:5 was the seeding ratio for HEK cells. When the experiments took place 96 hours post-plating, 1:7 was the working dilution for HEK cells. Unless otherwise stated, HEK cultures were processed 96 hours post-plating.
# HEK cells were transfected using the calcium-phosphate method. […]
# [2] = molecular target: T2, GUCY2C R792S mutant (Homo sapiens, UniProt P25092, R792S); assay: Ser40 phosphorylation in HEK cells co-transfected with Th and GUCY2C gain-of-function mutant R792S versus wt; type: cell-based; details: HEK cells co-transfected with Th and wt or R792S GUCY2C; FIG. 5B
# T2 construct: expressed in transfected cells; host or cells: HEK cells
# T2 sequence (P25092 24-1073 R792S): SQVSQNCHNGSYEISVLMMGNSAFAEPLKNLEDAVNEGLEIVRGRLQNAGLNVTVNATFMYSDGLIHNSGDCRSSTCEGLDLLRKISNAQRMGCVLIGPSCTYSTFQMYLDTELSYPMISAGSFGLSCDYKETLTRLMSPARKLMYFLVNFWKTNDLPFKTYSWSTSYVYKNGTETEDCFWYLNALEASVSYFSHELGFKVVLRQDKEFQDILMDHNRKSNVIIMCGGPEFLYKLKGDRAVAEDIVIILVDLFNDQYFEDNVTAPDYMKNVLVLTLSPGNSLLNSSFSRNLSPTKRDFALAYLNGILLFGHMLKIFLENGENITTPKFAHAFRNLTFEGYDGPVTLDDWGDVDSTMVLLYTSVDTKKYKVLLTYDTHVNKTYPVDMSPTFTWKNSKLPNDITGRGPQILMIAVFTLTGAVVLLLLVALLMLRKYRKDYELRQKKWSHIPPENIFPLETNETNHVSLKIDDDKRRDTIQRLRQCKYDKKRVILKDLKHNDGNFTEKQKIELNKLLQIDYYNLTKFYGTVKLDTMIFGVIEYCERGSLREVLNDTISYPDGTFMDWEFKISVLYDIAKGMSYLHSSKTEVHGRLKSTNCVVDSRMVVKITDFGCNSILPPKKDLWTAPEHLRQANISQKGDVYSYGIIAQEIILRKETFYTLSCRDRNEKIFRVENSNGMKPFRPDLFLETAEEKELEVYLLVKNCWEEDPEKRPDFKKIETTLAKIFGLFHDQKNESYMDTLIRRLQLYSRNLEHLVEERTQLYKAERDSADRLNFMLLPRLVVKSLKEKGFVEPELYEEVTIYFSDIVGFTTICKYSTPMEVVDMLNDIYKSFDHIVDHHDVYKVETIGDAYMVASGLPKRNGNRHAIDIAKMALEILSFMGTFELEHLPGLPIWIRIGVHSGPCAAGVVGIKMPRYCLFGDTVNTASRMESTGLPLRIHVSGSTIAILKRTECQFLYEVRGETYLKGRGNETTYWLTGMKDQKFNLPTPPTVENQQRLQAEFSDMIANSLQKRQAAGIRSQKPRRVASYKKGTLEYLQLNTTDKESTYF
# Procedure: as §1
# HEK cells were transfected using the calcium-phosphate method. 12-well plates were refreshed with 500 μL of growth medium before transfection. […] The plasmid mixture was taken into a final concentration of 250 mM CaCl2 in a total volume of 110 μL. A complementary tube was filled with 110 μL of HEPES-buffered saline 2× (HEBS 2×: 1.5 mM Na2HPO4, 50 mM HEPES pH 7.05, 280 mM NaCl). […]
# Up to 35 μL of sample was loaded in each slot and run in the presence of tris-glycine buffer and 0.1% SDS. […] After additional washings during 1 hour, blots were exposed to an enhanced chemiluminescence solution and the signal was detected using an Odyssey imager (LI-COR). […] For graph quantifications, ‘Fold Change’ represents the ratio P-Ser40/Total Th. Statistical comparisons between pair of groups correspond to unpaired Student's t-tests, as calculated with GraphPad Prism. […]
# [3] = injected into the blood stream; cited from earlier work
# [4] = test system: Th Ser40 phosphorylation (cGMP-derived signaling) in HEK cells; assay: Ser40 phosphorylation of Th in HEK cells transfected with Th (western blotting, ratio P-Ser40/Total Th); type: cell-based, mouse Th in HEK cells; details: 500 μM, 1 hour, 48 hours post-plating, n=6, p<0.0001
# Procedure: FIG. 3. HEK cells are a suitable model to study GUCY2C-induced Ser40 phosphorylation. (A) RT-qPCR data from intact HEK extracts. Input material was 10 ng of total RNA. Cp corresponds to the cycle number in which the expression starts to be considered positive. (-) represents the water control, which is negative in every case. (B) HEK cultures were transfected with Th and treated with a cGMP analogue 48 hours post-plating. Changes in Ser40 phosphorylation were studied. The graph represents the statistical analysis (n=6; Mean±SEM). Unpaired Student's t-test (p-value: ****<0.0001). Hereon, ‘Fold Change’ corresponds to the ratio P-Ser40/Total Th.
# as §2, with “If experiments were to be performed 48 hours after the plate preparation, 1:5 was the seeding ratio for HEK cells. When the experiments took place 96 hours post-plating, 1:7 was the working dilution for HEK cells. Unless otherwise stated, HEK cultures were processed 96 hours post-plating.” left out
# T1 sequence (P25092 24-1073): as the sequence (P25092 24-1073 R792S) above, with S769R counted along it
compound,measurement,setting,value
uroguanylin: natural agonistic ligand of GUCY2C; a 16 amino acid peptide (NDDCELCVNVACTGCL),P-Ser40 levels (Fold Change = ratio P-Ser40/Total Th),[1],increase P-Ser40 levels
guanylin: natural agonistic ligand of GUCY2C; a 15 amino acid polypeptide (PGTCEICAYAACTGC),P-Ser40 levels (Fold Change = ratio P-Ser40/Total Th),[1],increase P-Ser40 levels
same,"boost in Ser40 phosphorylation upon guanylin treatment, R792S mutant compared to wt receptor",[2],1.5 fold
same,passage of the blood-brain barrier,[3],rapidly enters the brain
Nc1nc2c(nc(Br)n2[C@@H]2O[C@@H]3COP(=O)(O)O[C@H]3[C@H]2O)c(=O)[nH]1 [8-Bromo-cGMP],P-Ser40 levels (Fold Change = ratio P-Ser40/Total Th),[4],small but significant increase in P-Ser40 levels
"CC(C)Cn1c(=O)n(C)c(=O)c2[nH]cnc21 [IBMX, 3-isobutyl-1-methylxanthine]",Ser40 phosphorylation with PDE inhibition,"[1]; HEK cultures, IBMX 100 μM, FIG. 5A",potentiated the increase in Ser40 phosphorylation as compared to guanylin administration
